From article PMC11585597 come the findings set out here.

Test [1] has as its target StrepII-∆N-term DERA (Chloroflexi bacterium GWB2_54_36). As to the kind of experiment: pull-down + SEC.
Test [2] has as its target HIS-∆N-term DERA (deoxyribose 5-phosphate aldolase of the SPU6 BMC locus, N-terminal extension deleted) (Chloroflexi bacterium GWB2_54_36). As to the kind of experiment: SEC. On the technique in general: Size exclusion chromatography separates by hydrodynamic size, large species first.

Take “HIS-RPI (ribose 5-phosphate isomerase B family protein of the SPU6 BMC locus, full length) (enzyme)”: in test [1], the stoichiometry N (usually a count of units in the complex or per binding partner) worked out at 1 and the subunits of each protein in the complex is greater than 2.

“HIS-∆N-term DERA (deoxyribose 5-phosphate aldolase of the SPU6 BMC locus, N-terminal extension deleted) (domain or fragment)” displayed a stoichiometry N in test [2] of 2.
